These results are taken from patent CN113185610A (UNIV NORTHWEST A&F, dated 2021).

The target in this assay is T1, 金黄色葡萄球菌肠毒素B (Staphylococcus aureus, UniProt P01552 28-266).
T1 construct: Coated at 500 ng/mL
T1 sequence: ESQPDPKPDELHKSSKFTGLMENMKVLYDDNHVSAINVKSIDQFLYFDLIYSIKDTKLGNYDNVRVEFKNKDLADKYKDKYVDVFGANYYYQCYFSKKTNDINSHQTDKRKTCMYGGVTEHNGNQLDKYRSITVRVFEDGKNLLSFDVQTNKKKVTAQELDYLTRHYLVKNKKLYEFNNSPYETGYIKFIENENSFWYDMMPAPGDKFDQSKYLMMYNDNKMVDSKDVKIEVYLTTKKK
Nature of the assay: ELISA, coated antigen, HRP-conjugated nanobody, OD450. Background: ELISA stands for enzyme-linked immunosorbent assay.

B1: 抗金黄色葡萄球菌肠毒素A纳米抗体Anti-SEA-Nb A150 (VHH)
VHH: ESGGGLVQAGGSLRLSCTTSGFTFDDYAMGWFRQAPGKEREGVSCINWNGANAYYADSVKGRFTISRDNNKNTLYLQMNSLKPEDTALYYCAAGRMPILDDHGYVYWGQGTQVTVS
For B1, the binding result was “no binding (tested: 500ng/mL (coated))”.
